B1: VENTX (parent)
chain: VFQHHQYLSPLERKRLAREMQLSE
B2: SPSB4 (parent)
chain: LDMDEGTLSFIVDGQYLGVAFRGL

Variants of: B1
Experiment: protein stability index of a GFP-peptide fusion (GPS, HEK-293T) (PSI 1-6); higher = more stable
Conditions: c terminus: a fixed tail appended
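Note: lentivirally expressed fusions sorted by FACS into six bins by GFP to DsRed ratio, PSI derived from sequencing read proportions per bin multiplied by bin number.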

First: VFQHHQYLSPLERKRLAREDQLSE
Second: VFQHHQYLSPLERKRLAREGQLSE
The protein stability index of the first is higher: 3.1 for the first, 2.71 for the second.

Compared with VFQHHQYLSPLERKRLAREQQLSE, VFQHHQYLSPLERKRLARETQLSE is lower in protein stability index: 2.6 for the first, 2.36 for the second.

Going from VFQHHQYLSPLERKRLAREVQLSE to VFQHHQYLSPLERKRLARENQLSE, the protein stability index rises from 2.29 to 2.53.

First: VFQHHQYLSPLERKRLARERQLSE
Second: VFQHHQYLSPLERKRLAREFQLSE
The protein stability index of the first is higher: 3.25 for the first, 2.04 for the second.

For VFQHHQYLSPLERKRLAREWQLSE, the protein stability index was 1.67.

Variants of: B2
Experiment: as above
Conditions: c terminus: a fixed tail appended

First: LDMDEGTLSFIVDGQVLGVAFRGL
Second: LDMDEGTLSFIVDGQILGVAFRGL
The protein stability index of the first is higher: 3.47 for the first, 3.04 for the second.

Going from LDMDEGTLDFIVDGQYLGVAFRGL to LDMDEGTLAFIVDGQYLGVAFRGL, the protein stability index rises from 1.87 to 3.98.

Compared with LDMDEGTLPFIVDGQYLGVAFRGL, LDMDEGTLGFIVDGQYLGVAFRGL is higher in protein stability index: 1.74 for the first, 2.99 for the second.

First: LDMDEGTLSGIVDGQYLGVAFRGL
Second: LDMDEGTLSKIVDGQYLGVAFRGL
The protein stability index of the first is lower: 1.5 for the first, 2.37 for the second.

Going from LDMDEGTLSYIVDGQYLGVAFRGL to LDMDEGTLSAIVDGQYLGVAFRGL, the protein stability index falls from 1.89 to 1.84.

First: LDMDETTLSFIVDGQYLGVAFRGL
Second: LDMDEWTLSFIVDGQYLGVAFRGL
The protein stability index of the first is lower: 2.32 for the first, 2.88 for the second.

Going from LDMDEPTLSFIVDGQYLGVAFRGL to LDMDESTLSFIVDGQYLGVAFRGL, the protein stability index rises from 1.72 to 4.16.

Going from LDMDEYTLSFIVDGQYLGVAFRGL to LDMDEMTLSFIVDGQYLGVAFRGL, the protein stability index falls from 3.87 to 2.66.

First: LDMDEGTLSFIVDGQYLGVAHRGL
Second: LDMDEGTLSFIVDGQYLGVAWRGL
The protein stability index of the first is lower: 1.72 for the first, 2.48 for the second.

Compared with LDMDEGTLSFIVDGQYLDVAFRGL, LDMDEGTLSFIVDGQYLSVAFRGL is higher in protein stability index: 2.55 for the first, 2.8 for the second.

Compared with LDMDEGTLSFIVDGQYLLVAFRGL, LDMDEGTLSFIVDGQYLRVAFRGL is higher in protein stability index: 2.31 for the first, 2.38 for the second.

Going from LDMDEGTLSFIVDGNYLGVAFRGL to LDMDEGTLSFIVDGKYLGVAFRGL, the protein stability index falls from 3.31 to 2.5.

Compared with LDMDEGTLSFIVDGSYLGVAFRGL, LDMDEGTNSFIVDGQYLGVAFRGL is lower in protein stability index: 2.35 for the first, 1.86 for the second.

Going from LDMDEGTLSFIVLGQYLGVAFRGL to LDMDEGTLSFIVQGQYLGVAFRGL, the protein stability index falls from 2.94 to 2.77.

Compared with LDMDEGQLSFIVDGQYLGVAFRGL, LDMDEGRLSFIVDGQYLGVAFRGL is lower in protein stability index: 3.36 for the first, 1.75 for the second.

Going from LDMDEGKLSFIVDGQYLGVAFRGL to LDMDEGPLSFIVDGQYLGVAFRGL, the protein stability index falls from 2.03 to 1.64.

Compared with LDMDEGNLSFIVDGQYLGVAFRGL, LDMNEGTLSFIVDGQYLGVAFRGL is higher in protein stability index: 1.23 for the first, 1.93 for the second.

First: LDMAEGTLSFIVDGQYLGVAFRGL
Second: LDMQEGTLSFIVDGQYLGVAFRGL
The protein stability index of the first is lower: 1.71 for the first, 2.4 for the second.

First: LDMDEGTLSFIVDGQYSGVAFRGL
Second: LDMDEGTLSFIVDGQYQGVAFRGL
The protein stability index of the first is lower: 1.86 for the first, 2.09 for the second.

First: LDMDEGTLSFIVDGQYRGVAFRGL
Second: LDMDEGTLSFIVDGQYHGVAFRGL
The protein stability index of the first is higher: 2.03 for the first, 1.86 for the second.

First: LDMDEGTLSFIVDGQYYGVAFRGL
Second: LDMDEGTLSFIVDLQYLGVAFRGL
The protein stability index of the first is higher: 2.55 for the first, 2.11 for the second.

Going from LDMDEGTLSFIVDHQYLGVAFRGL to LDMDEGTLSFIVDVQYLGVAFRGL, the protein stability index falls from 3.15 to 1.95.

First: LDMDEGTLSFIVDTQYLGVAFRGL
Second: LDMDEGTLSFIVDGQYLGVTFRGL
The protein stability index of the first is higher: 3.42 for the first, 2.03 for the second.

Going from LDMDEGTLSFIVDGQYLGVAFDGL to LDMDEGTLSFIVDGQYLGVAFEGL, the protein stability index falls from 2.41 to 2.05.

Going from LDMDEGTLSFIVDGQYLGVAFKGL to LDMDEGTLSFIVDGQYLGFAFRGL, the protein stability index rises from 2.01 to 2.31.

Going from LDMDEGTLSFIVDGQYLGMAFRGL to LDMDEGTLSFIVDGQYLGSAFRGL, the protein stability index falls from 2.32 to 1.66.

First: LDMDEGTLSFIVDGQYLGRAFRGL
Second: LDMDEGTLSFIVDGQYLGHAFRGL
The protein stability index of the first is lower: 2.04 for the first, 2.07 for the second.

Going from LDMDEGTLSFIVDGQYLGTAFRGL to LDMDCGTLSFIVDGQYLGVAFRGL, the protein stability index rises from 2.1 to 3.63.

First: LDMDGGTLSFIVDGQYLGVAFRGL
Second: LDMDLGTLSFIVDGQYLGVAFRGL
The protein stability index of the first is lower: 1.85 for the first, 2.51 for the second.

Compared with LDMDFGTLSFIVDGQYLGVAFRGL, ADMDEGTLSFIVDGQYLGVAFRGL is lower in protein stability index: 2.59 for the first, 1.83 for the second.

Going from HDMDEGTLSFIVDGQYLGVAFRGL to DDMDEGTLSFIVDGQYLGVAFRGL, the protein stability index falls from 2.12 to 1.31.

Going from QDMDEGTLSFIVDGQYLGVAFRGL to TDMDEGTLSFIVDGQYLGVAFRGL, the protein stability index rises from 1.53 to 1.86.

First: KDMDEGTLSFIVDGQYLGVAFRGL
Second: FDMDEGTLSFIVDGQYLGVAFRGL
The protein stability index of the first is lower: 1.27 for the first, 2.48 for the second.

Going from YDMDEGTLSFIVDGQYLGVAFRGL to LHMDEGTLSFIVDGQYLGVAFRGL, the protein stability index rises from 1.32 to 2.12.

Compared with LYMDEGTLSFIVDGQYLGVAFRGL, LDMDEGTLSFGVDGQYLGVAFRGL is lower in protein stability index: 2.74 for the first, 2.45 for the second.

Going from LDMDEGTLSFWVDGQYLGVAFRGL to LDMDEGTLSFAVDGQYLGVAFRGL, the protein stability index rises from 1.56 to 1.72.

Compared with LDMDEGTLSFITDGQYLGVAFRGL, LDMDEGTLSFIQDGQYLGVAFRGL is lower in protein stability index: 2.35 for the first, 1.58 for the second.

First: LDMDEGTLSFIVDGQYLGVAFRGG
Second: LDMDEGTLSFIVDGQYLGVAFRGQ
The protein stability index of the first is lower: 1.69 for the first, 2.6 for the second.

Compared with LDMDEGTLSFIVDGQYLGVAFRGN, LDMDEGTLSFIVDGQYLGVAFRGK is lower in protein stability index: 2.19 for the first, 1.65 for the second.

Compared with LDMDEGTLSFIVDGQYLGVAFRGP, LDMDEGTLSFIVDGQYLGVAFRGD is lower in protein stability index: 2.78 for the first, 1.78 for the second.

First: LDMDEGTLSFIVDGQYLGVAFRWL
Second: LDMDEGTLSFIVDGQYLGVAFRQL
The protein stability index of the first is higher: 4 for the first, 1.47 for the second.

Going from LDMDEGTLSFIVDGQYLGVAFRDL to LDQDEGTLSFIVDGQYLGVAFRGL, the protein stability index rises from 1.84 to 2.68.

LDPDEGTLSFIVDGQYLGVAFRGL gave a protein stability index of 1.74.
